Measurements as given in patent US20180346602A1.
Residue numbers refer to the chain shown, from its start.

Key:
[1] = molecular target: anti-VEGF/ANG2 antibody (IgG1 subclass with mutations P329G/L234A/L235A/I253A/H310A/H435A) [IgG part: P01857]; experiment: bridging ELISA; biotinylated and digoxigenylated anti-VEGF/ANG2 antibody bridged by M1.3.17 at 3.90625 ng/mL
[2] = molecular target: anti-VEGF/ANG2 antibody (IgG1 subclass with mutations P329G/L234A/L235A/I253A/H310A/H435A) [IgG part: P01857]; experiment: bridging ELISA; biotinylated and digoxigenylated anti-VEGF/ANG2 antibody bridged by M1.3.17 at 62.5 ng/mL
[3] = molecular target: anti-Dig antibody (IgG1 subclass with mutations P329G/L234A/L235A) [IgG part: P01857]; experiment: sandwich ELISA assay D; tracer M1.7.10-Dig; analyte conc. not printed (row 7 of 8)
[4] = molecular target: anti-VEGF/ANG2 antibody (IgG1 subclass with mutations P329G/L234A/L235A/I253A/H310A/H435A) [IgG part: P01857]; experiment: sandwich ELISA in serum; capture M1.3.17, tracer M1.7.24; anti-VEGF/ANG2 antibody 312.5 ng/mL
[5] = molecular target: anti-VEGF/ANG2 antibody (IgG1 subclass with mutations P329G/L234A/L235A/I253A/H310A/H435A) (human) [IgG part: P01857]; experiment: sandwich ELISA in serum; M1.3.17-Bi capture on SA plate; tracer anti-human kappa M1.7.10-Dig; analyte 2.5 ng/mL
[6] = molecular target: anti-VEGF/ANG2 antibody (IgG1 subclass with mutations P329G/L234A/L235A) [IgG part: P01857]; experiment: sandwich ELISA assay E; tracer M1.7.10-Dig; analyte 2) at 6.25 ng/mL
[7] = molecular target: anti-VEGF/ANG2 antibody (IgG1 subclass with mutations P329G/L234A/L235A/I253A/H310A/H435A) [IgG part: P01857]; experiment: bridging ELISA; biotinylated and digoxigenylated anti-VEGF/ANG2 antibody bridged by M1.3.17 at 125 ng/mL
[8] = molecular target: anti-VEGF/ANG2 antibody (IgG1 subclass with mutations P329G/L234A/L235A/I253A/H310A/H435A) [IgG part: P01857]; experiment: sandwich ELISA in serum; capture M1.3.17, tracer M1.7.24; anti-VEGF/ANG2 antibody 2500 ng/mL
[9] = molecular target: anti-VEGF/ANG2 antibody (IgG1 subclass with mutations P329G/L234A/L235A/I253A/H310A/H435A) [IgG part: P01857]; experiment: sandwich ELISA assay E; tracer M1.7.10-Dig; analyte 1) at 3.124 ng/mL
[10] = molecular target: anti-VEGF/ANG2 antibody (IgG1 subclass with mutations P329G/L234A/L235A) [IgG part: P01857]; experiment: sandwich ELISA assay E; tracer M1.7.10-Dig; analyte 2) at 0 ng/mL (blank)
[11] = molecular target: anti-VEGF/ANG2 antibody (IgG1 subclass with mutations P329G/L234A/L235A/I253A/H310A/H435A) [IgG part: P01857]; experiment: sandwich ELISA in serum; capture M1.3.17, tracer M1.7.24; anti-VEGF/ANG2 antibody 39.0625 ng/mL
[12] = molecular target: anti-Dig antibody (IgG1 subclass with mutations P329G/L234A/L235A) [IgG part: P01857]; experiment: sandwich ELISA assay D; tracer M1.19.31-Dig; analyte conc. not printed (row 5 of 8)
[13] = molecular target: anti-Dig antibody (IgG1 subclass with mutations P329G/L234A/L235A) [IgG part: P01857]; experiment: sandwich ELISA assay D; tracer M1.19.31-Dig; analyte conc. not printed (row 3 of 8)
[14] = molecular target: anti-VEGF/ANG2 antibody (IgG1 subclass with mutations P329G/L234A/L235A/I253A/H310A/H435A) [IgG part: P01857]; experiment: sandwich ELISA in serum; capture M1.3.17, tracer M1.7.24; anti-VEGF/ANG2 antibody 625 ng/mL
[15] = molecular target: anti-VEGF/ANG2 antibody (IgG1 subclass with mutations P329G/L234A/L235A/I253A/H310A/H435A) [IgG part: P01857]; experiment: bridging ELISA; biotinylated and digoxigenylated anti-VEGF/ANG2 antibody bridged by M1.3.17 at 31.25 ng/mL
[16] = molecular target: anti-VEGF/ANG2 antibody (wild-type IgG1 subclass) (human) [IgG part: P01857]; experiment: sandwich ELISA assay C; capture on SA plate; tracer FcγRI-Dig; analyte 3 ng/mL
[17] = molecular target: anti-VEGF/ANG2 antibody (wild-type IgG1 subclass) (human) [IgG part: P01857]; experiment: sandwich ELISA assay C; capture on SA plate; tracer FcγRI-Dig; analyte 25 ng/mL
[18] = molecular target: anti-VEGF/ANG2 antibody (wild-type IgG1 subclass) (human) [IgG part: P01857]; experiment: sandwich ELISA assay C; capture on SA plate; tracer FcγRI-Dig; analyte 50 ng/mL
[19] = molecular target: anti-VEGF/ANG2 antibody (wild-type IgG1 subclass) (human) [IgG part: P01857]; experiment: sandwich ELISA assay B; capture on SA plate; tracer M1.7.10-Dig; analyte 25 ng/mL
[20] = molecular target: anti-VEGF/ANG2 antibody (wild-type IgG1 subclass) (human) [IgG part: P01857]; experiment: sandwich ELISA assay C; capture on SA plate; tracer FcγRI-Dig; analyte 13 ng/mL
[21] = molecular target: cytokine (IL-2) antibody conjugate with the mutations P329G, L234A, L235A, I253A, H310A, and H435A; experiment: sandwich ELISA in serum; capture anti-IL2 antibody, tracer M1.7.24; conjugate 312.5 ng/mL
[22] = molecular target: cytokine (IL-2) antibody conjugate with the mutations P329G, L234A, L235A, I253A, H310A, and H435A; experiment: sandwich ELISA in serum; capture anti-IL2 antibody, tracer M1.7.24; conjugate 39.0625 ng/mL

B1: anti-variant (human) Fc-region antibody M1.3.17 (antibody, V domains shown)
VH: EVKLLESGGGLVQPGGSLKLSCAASGIDFRRYWMNWVRQAPGKGLEWIGEIDPDSSTINYTPSLKDKFIISRDNAKNTMYLQMRKVRSEDTALYYCARPYDYGAWFAYWGQGTLVTVSA
VL: QAVVTQESALTTSPGETVTLTCRSTTGAVTTSNYANWVQEKPDHLFTGLIGGTNKRAPGVPARFSGSLIGDKAALTITGAQTEDEAIYFCALWYSDHWVFGGGTKLTVL
signal [OD405 nm] [1]: 0.045 OD405 nm | signal [OD405 nm] [2]: 0.063 OD405 nm | signal 10% cynomolgus serum [OD405 nm] [3]: 0.052 OD405 nm | signal 10% human serum [OD405 nm] [3]: 2.53 OD405 nm | signal buffer [OD405 nm] [3]: 0.029 OD405 nm | signal [OD405 nm] [4]: 0.658 OD405 nm | signal [OD405 nm] [5]: 0.987 OD405 nm | signal [OD405 nm] [6]: 0.577 OD405 nm | signal [OD405 nm] [7]: 0.085 OD405 nm | signal [OD405 nm] [8]: 2.77 OD405 nm | signal [OD405 nm] [9]: 0.383 OD405 nm | signal [OD405 nm] [10]: 0.027 OD405 nm | signal [OD405 nm] [11]: 0.233 OD405 nm | signal 10% cynomolgus serum [OD405 nm] [12]: 0.105 OD405 nm | signal 10% human serum [OD405 nm] [12]: 1.71 OD405 nm | signal buffer [OD405 nm] [12]: 0.036 OD405 nm | signal 10% cynomolgus serum [OD405 nm] [13]: 0.357 OD405 nm | signal 10% human serum [OD405 nm] [13]: 1.84 OD405 nm | signal buffer [OD405 nm] [13]: 0.04 OD405 nm | signal [OD405 nm] [14]: 1.13 OD405 nm | signal [OD405 nm] [15]: 0.054 OD405 nm

B2: anti-AAA variant Fc-region antibody M1.6.22 (antibody, V domains shown)
VH: EVQLVESGGDLVKPGGSLKLSCAASGFTFSSYGMSWVRQTPDKRLEWVATISSGGSYIYYPDSVKGRFTISRDNAKNTLYLQMSSLKSEDTAMYYCARLGMITTGYAMDYWGQGTSVTVSS
VL: DVLMTQTPLSLPVSLGDQASISCRSSQTIVHSTGHTYLEWFLQKPGQSPKLLIYKVSNRFSGVPDRFSGSGSGTDFTLKISRVEAEDLGVYYCFQGSHVPYTFGGGTKLEIK
signal [OD405 nm] [16]: 0.069 OD405 nm | signal [OD405 nm] [17]: 0.066 OD405 nm | signal [OD405 nm] [18]: 0.067 OD405 nm | signal [OD405 nm] [19]: 0.047 OD405 nm | signal [OD405 nm] [20]: 0.07 OD405 nm

B3: anti-variant (human) Fc-region antibody M1.7.24 (antibody, V domains shown)
VH: B1 VH with I27F, R30S, D52T, M79L, R84I, A97V, Y108S
VL: B1 VL with T25S, D96N
signal 10% cynomolgus serum [OD405 nm] [3]: 0.041 OD405 nm | signal 10% human serum [OD405 nm] [3]: 2.44 OD405 nm | signal buffer [OD405 nm] [3]: 0.034 OD405 nm | signal [OD405 nm] [21]: 0.451 OD405 nm | signal [OD405 nm] [6]: 0.528 OD405 nm | signal [OD405 nm] [16]: 0.053 OD405 nm | signal [OD405 nm] [17]: 0.063 OD405 nm | signal [OD405 nm] [9]: 0.363 OD405 nm | signal [OD405 nm] [22]: 0.101 OD405 nm | signal [OD405 nm] [10]: 0.028 OD405 nm | signal 10% cynomolgus serum [OD405 nm] [12]: 0.078 OD405 nm | signal 10% human serum [OD405 nm] [12]: 1.33 OD405 nm | signal buffer [OD405 nm] [12]: 0.033 OD405 nm | signal [OD405 nm] [18]: 0.066 OD405 nm | signal 10% cynomolgus serum [OD405 nm] [13]: 0.438 OD405 nm | signal 10% human serum [OD405 nm] [13]: 1.6 OD405 nm | signal buffer [OD405 nm] [13]: 0.045 OD405 nm | signal [OD405 nm] [19]: 0.041 OD405 nm | signal [OD405 nm] [20]: 0.057 OD405 nm
